Source: the Immune Epitope Database (IEDB)

What was measured:
HLA-A*02:01 = assay: IEDB peptide-MHC binding, purified MHC/competitive/radioactivity; filed as Kd, often an IC50 or EC50 that approximates it; ≥ and ≤ were set here for values at or beyond the usual limits of such assays
HLA-A*02:02 = assay: as above
HLA-A*02:03 = assay: as above
HLA-A*02:06 = assay: as above
HLA-A*03:01 = assay: as above; conditions: source organism: Vaccinia virus WR
HLA-A*11:01 = assay: as above; conditions: source organism: Vaccinia virus WR
HLA-A*31:01 = assay: as above; conditions: source organism: Vaccinia virus WR
HLA-A*33:01 = assay: as above; conditions: source organism: Vaccinia virus WR
HLA-A*68:01 = assay: as above; conditions: source organism: Vaccinia virus WR
HLA-A*68:02 = assay: as above
HLA-B*07:02 = assay: as above; conditions: source organism: Vaccinia virus WR
HLA-B*35:01 = assay: as above; conditions: source organism: Vaccinia virus WR
HLA-B*51:01 [1] = assay: as above
HLA-B*53:01 = assay: as above; conditions: source organism: Vaccinia virus WR
HLA-B*54:01 = assay: as above; conditions: source organism: Vaccinia virus WR
HLA-B*08:01 = assay: as above
HLA-A*26:01 = assay: as above
HLA-B*18:01 = assay: IEDB peptide-MHC binding, purified MHC/direct/fluorescence; filed as Kd, often an IC50 or EC50 that approximates it; ≥ and ≤ were set here for values at or beyond the usual limits of such assays; conditions: source organism: Listeria innocua
HLA-B*51:01 [2] = assay: IEDB peptide-MHC binding, purified MHC/competitive/fluorescence; filed as Kd, often an IC50 or EC50 that approximates it; ≥ and ≤ were set here for values at or beyond the usual limits of such assays; conditions: source organism: Yersinia pestis Nepal516
HLA-A*23:01 = assay: IEDB peptide-MHC binding, purified MHC/competitive/radioactivity; filed as Kd, often an IC50 or EC50 that approximates it; ≥ and ≤ were set here for values at or beyond the usual limits of such assays
HLA-A*24:02 = assay: as above
[3] = source organism: Vaccinia virus WR
[4] = source organism: Dengue virus 2 Jamaica/1409/1983
[5] = source organism: Dengue virus 4 Philippines/H241/1956
[6] = source organism: Dengue virus 3 Martinique/1243/1999
[7] = source organism: Trypanosoma cruzi
[8] = source organism: Dengue virus 1 Singapore/S275/1990

With VTNLISETLK the Kd (HLA-A*02:01; [3]) was ≥ 69.4 µM, the Kd (HLA-A*02:02; [3]) was ≥ 70 µM and the Kd (HLA-A*02:03; [3]) was ≥ 70.4 µM. The Kd (HLA-A*02:06; [3]) was 17.3 µM, the Kd (HLA-A*03:01) was 0.409 µM and the Kd (HLA-A*11:01) was 0.00847 µM. For the same sequence, the Kd (HLA-A*31:01) was 3.27 µM, the Kd (HLA-A*33:01) was ≥ 34.2 µM and the Kd (HLA-A*68:01) was 0.0944 µM. The Kd (HLA-A*68:02; [3]) was ≥ 34.9 µM, the Kd (HLA-B*07:02) was ≥ 69.6 µM and the Kd (HLA-B*35:01) was ≥ 69.9 µM. The Kd (HLA-B*51:01 [1]; [3]) was ≥ 69.6 µM, the Kd (HLA-B*53:01) was ≥ 69.9 µM and the Kd (HLA-B*54:01) was ≥ 69.9 µM.
With RLTQSHPIL the Kd (HLA-A*02:01; source organism: Lassa virus Josiah) was 1.67 µM.
Sequence EARKTFVDL has a Kd (HLA-B*08:01; [4]) of 0.57 µM.
With LTFIRSTMPL the Kd (HLA-A*26:01; [5]) was 7.41 µM, the Kd (HLA-A*68:02; [5]) was 0.0198 µM and the Kd (HLA-B*51:01 [1]; [5]) was 1.52 µM.
MVTHFDNTQV gave a Kd (HLA-A*68:02; [5]) of 0.00999 µM.
LLFASMGFK was tested, and the Kd (HLA-A*02:01; [3]) was 4.83 µM, the Kd (HLA-A*02:02; [3]) was 0.294 µM and the Kd (HLA-A*02:03; [3]) was 0.183 µM. It also gave a Kd (HLA-A*02:06; [3]) of 16.7 µM, a Kd (HLA-A*03:01) of 0.000874 µM and a Kd (HLA-A*11:01) of 0.00171 µM. It also gave a Kd (HLA-A*31:01) of 0.0556 µM, a Kd (HLA-A*33:01) of 2.94 µM and a Kd (HLA-A*68:01) of 0.0126 µM. The Kd (HLA-A*68:02; [3]) was ≥ 36.3 µM, the Kd (HLA-B*07:02) was ≥ 77.5 µM and the Kd (HLA-B*35:01) was ≥ 41.6 µM. For the same sequence, the Kd (HLA-B*51:01 [1]; [3]) was ≥ 77.5 µM, the Kd (HLA-B*53:01) was ≥ 78.2 µM and the Kd (HLA-B*54:01) was ≥ 78.1 µM.
With FPFGDVWNY the Kd (HLA-B*18:01) was 0.0014 µM.
LPDTGSWGI was tested, and the Kd (HLA-B*51:01 [2]) was ≥ 20 µM.
LLQYWSQEL showed a Kd (HLA-A*02:01; source organism: HIV-1 M:B_MN) of 0.189 µM.
For GWKNWQEVPF, the Kd (HLA-A*23:01; [5]) was 0.43 µM and the Kd (HLA-A*24:02; [5]) was 0.19 µM.
ELKLFNVTL gave a Kd (HLA-B*08:01; [3]) of 0.00468 µM.
For VTLITGNMSF, the Kd (HLA-A*24:02; [4]) was 11.5 µM.
Work on MSFSCIAIGI yielded a Kd (HLA-A*68:02; [6]) of 0.00517 µM.
With QYVYMGQPL the Kd (HLA-A*24:02; source organism: Dengue virus 1 Brazil/97-11/1997) was 4.52 µM.
Sequence MMKERSTIL has a Kd (HLA-B*08:01; [3]) of 0.0349 µM.
Sequence LVGLLSNAAS has a Kd (HLA-A*02:01; [7]) of 11.2 µM, a Kd (HLA-A*02:02; [7]) of 1.72 µM and a Kd (HLA-A*02:03; [7]) of 0.395 µM. The Kd (HLA-A*02:06; [7]) was 1.33 µM and the Kd (HLA-A*68:02; [7]) was 4.31 µM.
In the case of AYAQMWSLM, the Kd (HLA-A*24:02; [6]) is reported as 0.0121 µM.
FVKRKKLDI showed a Kd (HLA-B*08:01; [3]) of 0.00298 µM.
MWHVTRGSVI showed a Kd (HLA-A*23:01; [5]) of 1.08 µM and a Kd (HLA-A*24:02; [5]) of 1.28 µM.
Work on TYGLNTFTNM yielded a Kd (HLA-A*23:01; [4]) of 4.92 µM.
In the case of IDKKGKVVGL, the Kd (HLA-B*08:01; source organism: Dengue virus 2 16681-PDK53) is reported as 13.7 µM.
For SFIEVKSCHW, the Kd (HLA-A*23:01; [4]) was 0.461 µM.
In the case of RPDTRHLRVL, the Kd (HLA-A*02:01; [3]) is reported as ≥ 69.4 µM, the Kd (HLA-A*02:02; [3]) is reported as ≥ 70 µM and the Kd (HLA-A*02:03; [3]) is reported as ≥ 70.4 µM. The Kd (HLA-A*02:06; [3]) was ≥ 69.8 µM, the Kd (HLA-A*03:01) was ≥ 70.1 µM and the Kd (HLA-A*11:01) was ≥ 69.8 µM. For the same sequence, the Kd (HLA-A*31:01) was ≥ 70 µM, the Kd (HLA-A*33:01) was ≥ 70 µM and the Kd (HLA-A*68:01) was ≥ 70.2 µM. The Kd (HLA-A*68:02; [3]) was ≥ 69.8 µM, the Kd (HLA-B*07:02) was 0.0117 µM and the Kd (HLA-B*35:01) was ≥ 69.9 µM. For the same sequence, the Kd (HLA-B*51:01 [1]; [3]) was ≥ 69.6 µM, the Kd (HLA-B*53:01) was ≥ 69.9 µM and the Kd (HLA-B*54:01) was ≥ 69.9 µM.
GKKHMIAGVL was tested, and the Kd (HLA-B*08:01; source organism: Dengue virus 3 Singapore/8120/1995) was 11.9 µM.
EVDSFSLGLL showed a Kd (HLA-A*26:01; [8]) of 1.93 µM and a Kd (HLA-A*68:02; [8]) of 0.146 µM.
LGRNKRPRL showed a Kd (HLA-B*08:01; source organism: Dengue virus 3 Sri Lanka/1266/2000) of 0.0427 µM.
Work on NPQTKQMAF yielded a Kd (HLA-B*08:01; [3]) of 0.0143 µM.
For LSIPPTAGIL, the Kd (HLA-B*08:01; [5]) was 2.34 µM and the Kd (HLA-B*51:01 [1]; [5]) was 9.47 µM.
YLLPSRGPKL was tested, and the Kd (HLA-A*02:01; source organism: Hepatitis C virus subtype 2b) was 0.646 µM.
